Targets include SRY HMG box Y72H (Y127H) (Homo sapiens, UniProt Q05066 56-141, Y127H); SRY HMG box Y72F (Y127F) (Homo sapiens, UniProt Q05066 56-141, Y127F); SRY HMG box Y72C (Y127C) (Homo sapiens, UniProt Q05066 56-141, Y127C).
Holding throughout (assay): FRET titration; 15 C, 25 nM DNA; FRET titration: 10 mM potassium phosphate, 10 mM Tris-HCl, 140 mM KCl, 1 mM EDTA, 1 mM DTT, pH 8.4, 15 C, 25 nM DNA; PGE: 10 nM DNA, 20 nM protein, 0.5x TBE, 4
Holding throughout (conditions): protein: recombinant; label: 5'-6-FAM (hexanyl linker) on upper strand; 5'-TAMRA (hexanyl linker) on lower strand; blunt

Chain of SRY HMG box Y72F (Y127F) (Q05066 56-141 Y127F): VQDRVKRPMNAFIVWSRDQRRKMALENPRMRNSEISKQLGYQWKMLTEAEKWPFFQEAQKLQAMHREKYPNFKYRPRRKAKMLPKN
Chain of SRY HMG box Y72H (Y127H) (Q05066 56-141 Y127H): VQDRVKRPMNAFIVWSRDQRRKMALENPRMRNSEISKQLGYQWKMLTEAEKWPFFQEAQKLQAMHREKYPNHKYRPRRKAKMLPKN
Chain of SRY HMG box Y72C (Y127C) (Q05066 56-141 Y127C): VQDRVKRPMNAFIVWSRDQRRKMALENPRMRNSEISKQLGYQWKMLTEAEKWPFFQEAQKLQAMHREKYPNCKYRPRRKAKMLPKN

B1: 15-bp consensus SRY site, FRET-labeled (dsDNA)
DNA 1: TCGGTGATTGTTCAG
DNA 2: CTGAACAATCACCGA
Take B1: the results for the Kd with SRY HMG box Y72H (Y127H), in the data set with SRY HMG box Y72F (Y127F) and in the data set with SRY HMG box Y72C (Y127C) were 19 ± 4 nM, 12 ± 3 nM and 21 ± 5 nM, respectively.

Source of the values: paper PMC9360328, “Tenuous Transcriptional Threshold of Human Sex Determination. I. SRY and Swyer Syndrome at the Edge of Ambiguity”.
